This is an account of results in paper PMC10760634.

Experiment [1] concerns the target the PHD and PHF7 (KD values in the range of 3–6 µM). The experiment can be described thus: MST.
Experiment [2] has as its target UBE2D2∼Ub (ubiquitin-conjugated UBE2D2 S22R/C85K) (UniProt P62837). Kind of experiment: ITC.
Experiment [3] shares this target. The experiment can be described thus: SEC. For orientation: In gel filtration, larger molecules generally elute earlier.

Chain of PHF7 (mPHF7 28–307) (Q9DAG9 28-307): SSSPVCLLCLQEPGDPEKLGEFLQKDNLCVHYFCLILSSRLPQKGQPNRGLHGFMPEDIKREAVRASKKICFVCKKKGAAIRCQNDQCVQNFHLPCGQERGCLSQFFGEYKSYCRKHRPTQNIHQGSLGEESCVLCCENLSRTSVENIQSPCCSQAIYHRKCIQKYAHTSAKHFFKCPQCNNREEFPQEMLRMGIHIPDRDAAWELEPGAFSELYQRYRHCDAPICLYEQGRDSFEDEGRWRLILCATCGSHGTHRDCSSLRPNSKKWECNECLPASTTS

On to “H3K4me2(1–44) (from UniProt P84233 2-45) (peptide)”, for which the Kd – broadly, a measure of binding affinity in units of concentration – in experiment [1] is 3000 to 6000 nM. Turning to “PHF7 (mPHF7 28–307) (from UniProt Q9DAG9 28-307) (domain or fragment)”, in experiment [2], the Kd was determined as 400 nM and the fold stronger affinity than for UBE2D2 alone came out at 3 fold. The stoichiometry N (in general, the number of molecules, sites or subunits per partner or assembly) in experiment [3] came out at 1. “PHF7 RING–PHD (150–307) C164A (from UniProt Q9DAG9 150-307) (domain or fragment)” came in with a fold lower affinity than PHF7 in experiment [2] of 7 fold.
